{"source": "patent US20220041739A1", "about": "(UNIVERSITY OF ULSTER, published 2022)", "target": "T1, IL-1R1 Fc fusion protein", "T1 construct": "Used as immunogen and as ELISA coating antigen at 1 ug/ml; also called IL-1R1 immunogen", "T1 chain": "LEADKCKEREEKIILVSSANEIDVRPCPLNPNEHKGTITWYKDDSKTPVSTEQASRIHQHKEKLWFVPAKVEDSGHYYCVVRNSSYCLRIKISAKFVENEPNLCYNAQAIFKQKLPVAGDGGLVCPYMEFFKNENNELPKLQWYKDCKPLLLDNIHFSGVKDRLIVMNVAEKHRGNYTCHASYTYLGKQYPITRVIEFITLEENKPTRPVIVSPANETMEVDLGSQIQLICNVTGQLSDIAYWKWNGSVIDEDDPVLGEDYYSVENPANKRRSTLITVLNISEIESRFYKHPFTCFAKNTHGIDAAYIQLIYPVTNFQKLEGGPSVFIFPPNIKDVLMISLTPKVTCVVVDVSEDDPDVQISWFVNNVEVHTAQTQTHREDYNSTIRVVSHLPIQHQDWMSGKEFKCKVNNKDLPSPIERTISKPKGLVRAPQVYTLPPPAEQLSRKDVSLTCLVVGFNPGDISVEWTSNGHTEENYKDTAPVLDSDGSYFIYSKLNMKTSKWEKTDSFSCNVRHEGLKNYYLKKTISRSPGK", "assay": "ELISA of hybridoma supernatants on coated IL-1R1, with APO-A1 as negative control", "procedure": "The day prior to screening, a Maxi Sorp plate was coated by adding 100 μl/well of 50 mM sodium carbonate coating buffer (pH 9.5) containing the IL-1R1 at 1 μg/ml. A separate coating solution was prepared by diluting APO-A1 in the same coating buffer at 1 μg/ml. […] This plate was incubated overnight at 4° C. in static conditions.\nEleven days after fusion, protoclones were screened by ELISA. 20× Maxi Sorp 96 well plates were coated as described herein using APO-A1 at 1 μg/ml as the negative control for specificity. The coating solution was removed and the plates were blocked as described herein. Samples were prepared by removing 160 μl of supernatant from each well of the ten fusion plates, limiting dilution plates, or 24-well plates and transferring to fresh 96 well culture plates containing 50 μl 1×PBS. After 2 hours of blocking, the blocking solution was removed, and the plates were washed 3× with PBS-T. The samples from each dilution plate were loaded onto the ELISA plates at 100 μl/well by adding 1 row from each dilution plate per 2 rows on the ELISA plates to account for specificity of the coating antigens. Two wells per ELISA were incubated with 100 μl 1×PBS as a negative control. These samples were incubated at 150 rpm for 2 hours at room temperature."}
{"binder": "Anti-IL-1R1 monoclonal antibody produced from clone F237 5D1-1A8-2A5 (antibody, V domains shown, Mouse hybridoma antibody tested as culture supernatant; also called first antibody (to IL-1R1)) VH: QIQLVQSGPELRKPGETVRISCKASGYPFTTAGLQWVQKMSGKGLKWIGWMNTQSEVPKYAEEFKGRIAFSLETAASTAYLQINNLKTEDTATYFCAKSVYFNWRYFDVWGAGTTVTVSS VL: DIVMTQSPATLSVTPGDRVSLSCRASQSISDYLSWYQQRSHESPRLIIKYASQSISGIPSRFSGSGSGSDFTLSINSVEPEDVGVYYCQHGHSFPLTFGSGTKLELKR", "values": [{"measurement": "binding result", "value": "binds"}]}
